Experiment: soluble on expression in E. coli; label from the status in PepcDB or PDB records
In the case of “MSLGEKRVELHLHTPMSQMDAVTPVSKLVAQAGKWGHEAIAVTDHAVAQSFPEAYSAGKKAGVKVIYGVEANLVNDGVPIAYNEEHRLLADETYVVFDVETTGLSAVYDTVIELAAVKVKGGEIIDRFESFANPHQPLSATIIELTGITDDMLTDAPEVDEVFKKFEEWMGDHTLVAHNASFDMGFINVGFKKAGLEKTKNPVIDTLELARFLFPEMKNHRLNTLCKKMDIELTQHHRAIYDTEATGYLLVKMLKDVIEKGFEYHDQLNDSMGQGDAYKRGRPSHMTLLATSDVGLKNLYKLVSYSHLNYFYRVPRVPRSLLKKYREGILVGTACDKGEVFEAMMQKAPEEVEEIAQFYDYIEVMPPEVLRHLVERELVRDEGQLKTIISNLVKLGETLDKPVVATGNVHYLDPEDAMYRKILVSSQGGANPLNRHSEGHHHHHH”, the “soluble on expression in E. coli” value is reported as “soluble”.
With “MGSDKIHHHHHHMPARPNHLSNNIVFRDGVQVMRMDLHVHTEVSHDCQTRLRDIPAWLLRTNTRVIAITDHDEQRGGPELKRLVADLGLADRLSIIPGEEITTSEGELIGLFLEERIPPGLTPEATVQEIKAQGGLVLLQHGFDPLKRYRLRPEATQRIADQIDMVETFNSRLSRHHWNRVAAEWARARHLPVCAGSDAHTLRDIGEAWVETPFRLIHTPEQLLQALDEGVVGGRWTHPVYAYGLKQWRNLNGRFQRKD” the “soluble on expression in E. coli” value was “not soluble”.
In the case of “MGSDKIHHHHHHMRAAQYLRMSTEHQTYSIDNQRDAIRDYAEIMGYEIVATYEDAGRSGLNLGGRPGLQRLLADVESGRADFETVVVYDVSRWGRFQNIDESAAYEYRCQMAGVRIEFCAEQFANDGSIESDVLKAIKRSMAAEQSRMLSQKVFIGQARLIRMGFRQGSKVGFGLRRLLVDQHGRPKGILSPSEYKSLQTDRIILVLGPPDEIATVRWIFGHFVKTRKTELEMARLLNKRGVLSDLGRPWTRVSVHSVLTNENYIGNSIWNKHSARLRSHQVRNPPELWVRVENILEPIVDRKLFNRAQIVLKTIYRHLTNDEMLAALKALLARRGALSSFIIDAAPDCPPSTRYMSRFGTIVKAYELIGYEPPKNSRYIFVNRRLETMRLQIIEDLLAAVEKRGGIATHVMETDLLRINQEITVAIATGRCRVSSFGYPRWFAKADREPPPDIFVLIRMNPDDLSIRDYLIAPAHEIAGKSELHAINGARLDTYIFPTLNPLIRLAERASVGSAAWN”, the “soluble on expression in E. coli” value is reported as “not soluble”.
In the case of “MAKYTEWLTEEGLIKIEGWARDGLIDKQIAQNIGVAYSTFREWVKKFPALSASLKKGKEVVDRQVENALFKSATGYEYTEVTEELTENGMEITKKVKKQVAPNPTAAIFWLKNRKPDEWRDRKETEVSGVLNISDAAVEIEQFFEDDST”, the “soluble on expression in E. coli” value is reported as “not soluble”.
For “MSLARHEAIVEPAQSTHTSGAHTSGAQAQPGVRPTTAAGRWRDVEMMAYKQDDAAPFRDVTRQLLFSDPRLACEWRYFEVAAGGYSTLEKHDHVHGVMIHRGKGQCLVGHHVSDVAVGDLVFIPPQTWHQFRANAGDVLGFLCLVNAERDRPQLPGDGDLAALRADPAIADFLSSEGHHHHHH”, the “soluble on expression in E. coli” value was “soluble”.
With “TQHIESHTHVVSLEEIPVERNLAQLTGWTEGAPVWRLVRQREIEGEVDILDIDYLIKEIVPELPKHRAEDSIFDYLENDLGLAISYAQKEITVEPLTEMDKQLIGEVEGNHVVVVRSIMNLEDTRCFGYTESRHRLNKFKFVEFARRRKL” the “soluble on expression in E. coli” value was “soluble”.
In the case of “TETSPDKWLIDGDTPLDEVERAIGYELPEGDYETISGLLFDHANALLKTGDVIEIPLDFEPEDYLNNTSPTQRILRITVLEVERNVPVKLALALLEDHPDNHPAPKENR”, the “soluble on expression in E. coli” value is reported as “soluble”.
With “MTVDFYSFAKGIVKGVLTPFYRIQTIGIEQFPKEGGVLLCANHISNLDPPVIGITAPRPIRFMAKEELFRAPVVKTLVKSLHAFPVKRGMNDRQALRTGLEVLKQGEVLGIFPEGTRSKDGRLKKALPGVGFFALRTDAAVVPCAIVGPYRPFVPLKVVYGAPVDMAPLRARKASPEEAADYIMDHIRRLLEEHQRA” the “soluble on expression in E. coli” value was “not soluble”.
With “MRNIMAGFLIFLSSAAYADINLYGPGGPHTALLDAAKLYAEKTGIIVNVHYGPQNKWNEDAKKNADILFGASEQSALAIIRDHKDSFSEKDIQPLYLRKSILLVKKGNPKNIRSIDDLTRPGIGVIVNDGGGTSNTSGTGVWEDIAGRKGNIETVAAIRKNIILYAPNSGTARKALENQPGADVWITWADWAASNPEIGDVVEIAPDYVIWRDMNITVRQDANDETRRFAEWLQTDEAAPAFKKYGWTRKGT” the “soluble on expression in E. coli” value was “not soluble”.
For “MTEIERKFLVATFPDGELHAVPLRQGYLTTPTDSIELRLRQQGTEYFMTLKSEGGLSRQEYEIQIDVTQFEMLWPATEGRRVEKTRYSGKLPDGQLFELDVFAGHLSPLMLVEVEFLSEDAAQAFIPPPWFGEEVTEDKRYKNKALALSIP”, the “soluble on expression in E. coli” value was “soluble”.
For “MGSSHHHHHHSSGRENLYFQGMKLATLKDSTRDGKLVVVSKDLTRCSEVGHIARTLQAALDDWAHAGPRLERVAEGIETGAQPTMRFHEHDAASPLPRAFQWADGSAYVNHVELVRKARNAEMPASFWTDPLIYQGGSDSFLGPRDPILMADDAWGIDMEGEAAVIVDDVPMGATLDEAKAAIRLVMLVNDVSLRGLIPGELAKGFGFYQSKPSSAFSPVAVTPEELGEAWDGGKLHLPLHVDLNGEPFGRANAGIDMTFDFPQLIVHAARTRPLSAGTIIGSGTVSNKLEGGPGRPVSEGGAGYSCIAELRMIETIEGGAPKTQFLKFGDVVRIEMKDRTGHSIFGAIEQKVGKYERG”, the “soluble on expression in E. coli” value was “soluble”.
For “MKWFRFPIAVIGLVLLSGCATQNESATQWLYPPMAVPLQASIQQEVQIARLSQLLQRTDLEPEIRAKMLFERGNYYDSVGLRDLARLDFTQSLSINPAQPDVFNLLGVYYTEAGEFDAAYESFDSTLELDPSNEYAVRNRAIALYYGERPQLALEEITKHYQQDPQDPFRALWLYIIESDIDPTKARTELLERYQQHDEQWGWVLVGLMLDQLSEEVAFKAIIAGSRENELLAQRLTEAYFYLGKRYQMQGELAHALSLYKLAISFNVYEYVEHRYAFLELGRIYQQAREEQLARAKAEAMTQ”, the “soluble on expression in E. coli” value was “not soluble”.
In the case of “MGSDKIHHHHHHMRVTADEGLYGEEATQGTEFRFHCETLFSRSSLHRFEIGLHRHSAFLQILYIFGGEGDALLEGRIEPIRPPVAIIVPPGFEHGFRFSRDIGGVIVTMLPGALPASVQALLLRNFQQPVLLRLRDFAEKDGLRSGFERISAEYEAREIGRDAMIEGQLATVVTLLSRAARPLLETSGEGLAEQRFERLLSLIARHIREPQKAGFYAGKLGLSETHLNRLVRSVSGLSLQRLIAKRQIEIAQQELIFTVSSVQMIAEGLGFADPAYFNRFFKRETGMTPRAWRLAEQRKMGDTGARLTPPQTSILASSR”, the “soluble on expression in E. coli” value is reported as “not soluble”.
For “MAHHHHHHMSFTEWPVSRVRQEFVDYFKKQGHTFVPSSPVCPHDDPTLLFINAGMNQFKALFLGTADPNTDFGRLKRAANSQMCIRAGGKHNDLEDVGRDTYHHTFFEMLGSWSFGDYFKKEAIQWAWELLTEVYKLPKDQLYVTYFEGDESNGLDPDLEAKELWGQLLPESQIVPGNAKDNFWEMGDTGPCGPCSEVHFDRIGRRNAASLVNKDDPMVVEIWNLVFMQFERRAGGFLTPLPQKHIDTGMGLERLTSILQGVKSNYDTDAWIPLFEAIQTATGYPKSYAEIRNDPDSDALVAYRVVADHIRCLTSAVGDGVMPDSVGRGFVLRRIIRRAVRYGVQFLGAKPGFFTQLVDSVCTSLGPFFPHLKEPRNIQRIKAVLADEEQSFAKTWEMGLKHFNHAVNECRANSSKVISGSEAFVLHDRYGFPVDLTCLLAEKDGMTVDLEGFNTEMKESKVSAGRVAATKTFIDAYQLEELKTRGIPQTNDAAKYVWEDYTGDVLAIFDKKNSKFISLLEPGNDLGAEGVGIILSTTNFYAESGGQVYDTGRLVAASDSVFEGRRRTTWPATWCTWATSASTLPPRSPRLRWCSCRWTTSAACRSRQTIPRPTS”, the “soluble on expression in E. coli” value was “not soluble”.
For “MIFAKGHGTQNDFVLLPDVDAELVLTAARVAALCDRRKGLGADGVLRVTTAGAAQAVGVLDSLPEGVRVTDWYMDYRNADGSAAQMCGNGVRVFAHYLRASGLEVRDEFVVGSLAGPRPVTCHHVEAAYADVSVDMGKANRLGAGEAVVGGRRFHGLAVDVGNPHLACVDSQLTVDGLAALDVGAPVSFDGAQFPDGVNVEVLTAPVDGAVWMRVHERGVGETRSCGTGTVAAAVAALAAVGSPTGTLTVHVPGGEVVVTVTDATSFLRGPSVLVARGDLADDWWNAMG”, the “soluble on expression in E. coli” value was “not soluble”.
In the case of “MTDTQYIGRFAPSPSGELHFGSLIAALGSYLQARARQGRWLVRIEDIDPPREVPGAAETILRQLEHYGLHWDGDVLWQSQRHDAYREALAWLHEQGLSYYCTCTRARIQSIGGIYDGHCRVLHHGPDNAAVRIRQQHPVTQFTDQLRGIIHADEKLAREDFIIHRRDGLFAYNLAVVVDDHFQGVTEIVRGADLIEPTVRQISLYQLFGWKVPDYIHLPLALNPQGAKLSKQNHAPALPKGDPRPVLIAALQFLGQQAEAHWQDFSVEQILQSAVKNWRLTAVPESAIVNSTFSNASC”, the “soluble on expression in E. coli” value is reported as “soluble”.
For “MQVLRLMALPLFALSLSVSITGCDQKNDTLQGKQNNMTAFIKKIAASKESEETQRYVGNLNGIEIKLTYYYKGDIVLRQISEHKLLYKTLKANNKEEAQKMLSQVGEAYQGMPGLTERIDYYDSYATEYVDINFTQAKISDLCKLPGSSIDNCSAYYLSMIRSQKLLEESGYHRIN”, the “soluble on expression in E. coli” value was “not soluble”.
For “LGSMESTQQMAVSIINSSFEAAVVAATSALENMGIEYDYQDIYSRVKNKFDFVMDDSGVKNNPIGKAITIDQALNNKFGSAIRNRNWLADTSRPAKLDEDVNKLRMMLSSKGIDQKMRVLNACFSVKRIPGKSSSIIKCTKLMRDKLERGEVEVDDSFVDEKME”, the “soluble on expression in E. coli” value was “soluble”.
For “MSLDVSAYPFFRRDMSWLSFNERVLMEAADRTLPVYDRIKFLSIFSSNLEEFYTVRVAYHQAVLQKRRDRSEAEEDSDADAHILQAIRETVIRQDELYYRIFYDQILPTLEEHGIRLRTHAPTHPDHKAYLRRFFHEEIFPLLYPMLLLPSKVRTFIRSGRVYLAVRLKEKETDEAYSYALLNVPTDGLPRFVELPRLQTDTFYYYSFLEDIIKEHLDVVFPGYEVMDSYSIKVSRDADLLLDAQRPEDLPGEIRKKVKTRKLGAPTRFMYDGRMPDEVLRYICSSCDIDPEEAIRSGNYVNLQDLAMLPNPFAPRLETLTPEPLLSKHLEQAPSLMEGIRRKDYLIHVPYYTYDYVVRLLMEAAISPDVSEIRLTQYRVAENSSIISALEAAAQSGKKVSVFVELKARFDEENNLRLSERMRRSGIRIVYSMPGLKVHAKTALILYHTPAGERPQGIALLSTGNFNETTARIYSDTTLMTANTDIVHDVYRLFRILDGDPEPARFSRLLVARYNMGEAITNLIEREIENVKRGKRGYMLLKMNGLQDKNVITQLYRASEAGVEIDLIVRGICCLVPDMPQSRNIRVTRLVDMYLEHSRIWCFHNGGKEEVFISSADWMKRNLYNRIETACPVLDPTLRREIIDILEIQLRDNIKACRIDSSLNNIYKHNSDEKPVRAQAAIYRYLKGKEETTPAAKEGHHHHHH”, the “soluble on expression in E. coli” value was “soluble”.
With “MNITPFPTLSPATIDAINVIGQWLAQDDFSGEVPYQADCVILAGNAVMPTIDAACKIARDQQIPLLISGGIGHSTTFLYSAIAQHPHYNTIRTTGRAEATILADIAHQFWHIPHEKIWIEDQSTNCGENARFSIALLNQAVERVHTAIVVQDPTMQRRTMATFRRMTGDNPDAPRWLSYPGFVPQLGNNADSVIFINQLQGLWPVERYLSLLTGELPRLRDDSDGYGPRGRDFIVHVDFPAEVIHAWQTLKHDAVLIEAMESRSLRLEHHHHHH” the “soluble on expression in E. coli” value was “not soluble”.

Source: the DeepSol protein solubility set
